Measurements published in patent publication US8173131B2, “Compositions and methods for modulating RSV infection and immunity” (PerkinElmer Health Sciences, Inc., priority 2000, dated 2012).

B1: GHIS: purified recombinant soluble polyhistidine-tagged G glycoprotein from transfected Vero cells (protein)
chain: NHKVTPTTAIIQDATSQIKNTTPTYLTQNPQLGISPSNPSEITSQITTILASTTPGVKSTLQSTTVKTKNTTTTQTQPSKPTTKQRQNKPPSKPNNDFHFEVFNFVPCSICSNNPTCWAICKRIPNKKPGKKTTTKPTKKPTLKTTKKDPKPQTTKSKEVPTTKPTEEPTINTTKTNIITTLLTSNTTGNPELTSQMETFHSTSSEGNPSPSQVSTTSEYPSQPSSPPNTPRQ
modifications: left off: small tags and cut ends
notes: purified recombinant soluble polyhistidine-tagged G glycoprotein from transfected Vero cells

How the values were obtained:
[1] = target: T1, CX3CR1 (293-CX3CR1 cells) (Homo sapiens, UniProt P49238); assay: G glycoprotein and Fkn binding to 293-CX3CR1 cells by flow cytometry; conditions: for binding to 293-CX3CR1 cells: wheat germ lectin column fraction (G, F glycoprotein) or purified recombinant polyhistidine-tagged G glycoprotein
T1 construct: expressed in transfected cells
T1 sequence (P49238 1-355): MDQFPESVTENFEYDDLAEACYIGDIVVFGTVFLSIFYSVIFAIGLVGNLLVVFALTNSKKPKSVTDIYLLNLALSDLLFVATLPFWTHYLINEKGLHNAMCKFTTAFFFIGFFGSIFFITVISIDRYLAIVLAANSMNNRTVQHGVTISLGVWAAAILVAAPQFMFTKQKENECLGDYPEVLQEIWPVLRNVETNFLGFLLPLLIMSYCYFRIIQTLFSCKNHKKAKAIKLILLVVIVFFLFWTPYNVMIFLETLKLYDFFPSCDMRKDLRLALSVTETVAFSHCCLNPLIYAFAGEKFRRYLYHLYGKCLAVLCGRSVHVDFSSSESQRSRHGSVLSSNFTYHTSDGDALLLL
Protocol: (§1) Purified G glycoprotein was examined for binding to 293-CX3CR1 cells^33. A pcDNA 3.1 plasmid containing the CX3CR1 gene and a neomycin resistance gene was used to stably transfect human embryonic kidney (HEK) cells. Neomycin resistance was used for selection and maintenance of plasmid transfection of human embryonic kidney cells.
All binding studies were done on ice and either G glycoprotein or human Fkn (R&D Diagnostics, Minneapolis, […]) containing 1% bovine serum albumin (Sigma) and incubated with the 293-CX3CR1 cells or 293 control cells for 30 min at 4° C. […] For inhibition studies, 100 pM-1 μM human Fkn or G glycoprotein was preincubated with the cells for 30 min at 4° C. Without washing, 100 pM of either Fkn or G glycoprotein was added and incubated for 30 min at 4° C. The cells were washed, blocked with FcγRIII blocking antibody (HB197) for 30 min on ice, washed and stained as appropriate with either an anti-G glycoprotein monoclonal antibody cocktail (132-5B, 132-5G, 130-2G, 232-IF) or a biotinylated anti-G glycoprotein monoclonal antibody cocktail (130-2G, 131-2G) or anti-Fkn monoclonal antibody (51637.11; R&D Diagnostics). Concentrations of 1 μg of anti-G glycoprotein monoclonal antibody (131-2G)^34, rabbit anti-CX3CR1 sera^33, and anti-CX3CR1 monoclonal antibody containing 10 μg/ml heparin were used in all experiments. […] Staining was detected with absorbed FITC-goat anti-mouse (H & L chain) monoclonal antibody (PharMingen, San Diego, Calif.) or streptavidin-PE (PharMingen) using flow cytometry (FACScan, Becton-Dickinson, Mountain View, Calif.). A 76 amino acid ^125I-Fkn polypeptide comprising the […] (NEN, Boston, Mass.) was used in radioligand studies^33. As a control, the void volume following purified G glycoprotein passaged over an anti-G glycoprotein antibody (130-2G) affinity column was examined by flow cytometry for binding to either 293 or 293-CX3CR1 cells.
(§2) The receptor for Fkn, CX3CR1, was previously identified and characterized using anti-CX3CR1 rabbit antiserum and CX3CR1-transfected human embryonic kidney cells (293-CX3CR1 cells)^33.
The percent Fkn-maximum binding was calculated using the equation: [% G (or Fkn) 293-CX3CR1]-[% G (or Fkn) 293]/[% Fkn (10 nM) 293-CX3CR1]-[% Fkn (10 nM) 293], where G=G glycoprotein, Fkn=fractalkine, 293-CX3CR1=CX3CR1-transfected 293, 293=untransfected 293. The concentration of G glycoprotein was estimated using a molecular weight of 90 kD.

293 cells = assay: G glycoprotein and Fkn binding to untransfected 293 control cells by flow cytometry; design: species or system human; conditions: for binding to 293 cells: wheat germ lectin column fraction (G, F glycoprotein) or purified recombinant polyhistidine-tagged G glycoprotein
Protocol: as §1
All binding studies were done on ice and either G glycoprotein or human Fkn (R&D Diagnostics, Minneapolis, Minn.) were diluted between 1 nM-100 nM in PBS (GIBCO) containing 1% bovine serum albumin (Sigma) and incubated with the 293-CX3CR1 cells or 293 control cells for 30 min at 4° C. […] For inhibition studies, 100 pM-1 μM human Fkn or G glycoprotein was preincubated with the cells for 30 min at 4° C. Without washing, 100 pM of either Fkn or G glycoprotein was added and incubated for 30 min at 4° C. The cells were washed, blocked with FcγRIII blocking antibody (HB197) for 30 min on ice, washed and stained as appropriate with either an anti-G glycoprotein monoclonal antibody cocktail (132-5B, 132-5G, 130-2G, 232-IF) or a biotinylated anti-G glycoprotein monoclonal antibody cocktail (130-2G, 131-2G) or anti-Fkn monoclonal antibody (51637.11; R&D Diagnostics). Concentrations of 1 μg of anti-G glycoprotein monoclonal antibody (131-2G)^34, rabbit anti-CX3CR1 sera^33, and anti-CX3CR1 monoclonal antibody containing 10 μg/ml heparin were used in all experiments. […] Staining was detected with absorbed FITC-goat anti-mouse (H & L chain) monoclonal antibody (PharMingen, San Diego, Calif.) or streptavidin-PE (PharMingen) using flow cytometry (FACScan, Becton-Dickinson, Mountain View, Calif.). A 76 amino acid ^125I-Fkn polypeptide comprising the […] (NEN, Boston, Mass.) was used in radioligand studies^33. As a control, the void volume following purified G glycoprotein passaged over an anti-G glycoprotein antibody (130-2G) affinity column was examined by flow cytometry for binding to either 293 or 293-CX3CR1 cells.
as §2

[2] = tested on: G glycoprotein binding to 293-CX3CR1 cells; design: species or system human; conditions: heparin 5 μg/ml alone
Protocol: All binding studies were done on ice and either G glycoprotein or human Fkn (R&D Diagnostics, Minneapolis, Minn.) were diluted between 1 nM-100 nM in PBS (GIBCO) containing 1% bovine serum albumin (Sigma) and incubated with the 293-CX3CR1 cells or 293 control cells for 30 min at 4° C. […] Without washing, 100 pM of either Fkn or G glycoprotein was added and incubated for 30 min at 4° C. The cells were washed, blocked with FcγRIII blocking antibody (HB197) for 30 min on ice, washed and stained as appropriate with either an anti-G glycoprotein monoclonal antibody cocktail (132-5B, 132-5G, 130-2G, 232-IF) or a biotinylated anti-G glycoprotein monoclonal antibody cocktail (130-2G, 131-2G) or anti-Fkn monoclonal antibody (51637.11; R&D Diagnostics). Concentrations of 1 μg of anti-G glycoprotein monoclonal antibody (131-2G)^34, rabbit anti-CX3CR1 sera^33, and anti-CX3CR1 monoclonal antibody containing 10 μg/ml heparin were used in all experiments. […] Staining was detected with absorbed FITC-goat anti-mouse (H & L chain) monoclonal antibody (PharMingen, San Diego, Calif.) or streptavidin-PE (PharMingen) using flow cytometry (FACScan, Becton-Dickinson, Mountain View, Calif.). A 76 amino acid ^125I-Fkn polypeptide comprising the […] (NEN, Boston, Mass.) was used in radioligand studies^33. As a control, the void volume following purified G glycoprotein passaged over an anti-G glycoprotein antibody (130-2G) affinity column was examined by flow cytometry for binding to either 293 or 293-CX3CR1 cells.
For peptide inhibition studies, a series of G glycoprotein peptides were identified in the amino acid sequence of the A2 strain of RSV (GENBANK, attachment protein locus 1912305, Table 4). The peptides were synthesized using a simultaneous, multiple solid-phase peptide synthesis method on a peptide synthesizer (Perkin-Elmer Applied Biosystems, Berkeley, Calif.), and tested for homogeneity by reverse-phase liquid chromatography and capillary electrophoresis (www.biotech.cdc.gov/protein/methods). Inhibition assays were performed as described for the binding studies above.
To determine if G glycoprotein bound 293-CX3CR1 cells via CX3CR1, the ability of four reagents (anti-CX3CR1 rabbit antiserum, anti-CX3CR1 monoclonal antibody (2A9-1), Fkn and a 76 amino acid 125-I-Fkn polypeptide containing the CX3C domain) that bind to CX3CR1 to block G glycoprotein binding to 293-CX3CR1 cells was examined. In addition, to determine if binding of G glycoprotein to 293-CX3CR1 cells was dependent upon the CX3C motif, G glycoprotein peptides with a single residue insertion (Δ+1) or deletion (Δ−1) in the CX3C motif and also peptides that lacked or included the CX3C motif (Table 4) were generated. This panel of peptides was analyzed for their ability to block G glycoprotein or Fkn binding to 293-CX3CR1 cells.
Inhibition of Fkn and G glycoprotein binding to 293-CX3CR1 cells by treatment with monoclonal antibodies to G glycoprotein or CX3CR1, or treatment with G glycoprotein, Fkn, or G glycoprotein peptides in the presence or absence of heparin as described in Methods. […] The concentration of G glycoprotein was estimated using a molecular weight of 90 kD.

RSV [3] = assay: RSV plaque reduction assay on Vero cells (Example 1); assay type: cell-based, RSV/A2; conditions: 5 μg/ml
Protocol: Dilutions of Fkn (R&D systems), SDF-1 α (R&D systems), G glycoprotein, heparin (Sigma), G glycoprotein peptides and anti-CX3CR1 antibody were made in serum-free Dulbecco's Modified Eagle's Media (DMEM; GIBCO) containing 1% BSA (Sigma) and preincubated with the Vero cells for 1 h at 37° C. 50 μg of anti-CX3CR1 antibody or heat-inactivated (56° C., 30 min) normal rabbit sera (control) were used in all experiments. […] Dilutions of RSV were made in serum-free DMEM (GIBCO) and added to pretreated Vero cells for 2 h at 37° C. Following virus infection, DMEM (GIBCO) containing 10% FBS (Hyclone, Logan, Utah) was added to the wells. Plaques were enumerated using immunostaining for F and G glycoproteins using biotinylated monoclonal antibodies 131-2A (anti-F glycoprotein) and 130-2G (anti-G glycoprotein) as described^45.
RSV plaque reduction following treatment with G glycoprotein, Fkn, G glycoprotein peptides, anti-CX3CR1 antibody, SDF-1-α and/or heparin as described in Methods. Percent inhibition was determined from the mean plaque forming units (pfu) of treated Vero cells over saline-treated Vero cells using a dilution of RSV that would produce 40-80 pfu. p-values were determined using unpaired two-tailed analysis where p<0.05 is significant. The concentration of G glycoprotein was estimated using a molecular weight of 90 kD.

RSV [4] = assay: RSV plaque reduction by small molecule peptide inhibitors on Vero cells (Example II); assay type: cell-based, RSV/A2; conditions: heparin alone, 5 μg/ml
Protocol: Vero cells were treated with PBS, RT33, RT34, Δ+1, Δ−1 and EYp1 peptides (100 μm) in the presence (B) or absence of heparin (A) (5 μg/ml). Percentage inhibition was determined by dividing the mean plaque forming units (PFU) of treated Vero cells by the mean PFU of PBS-treated Vero cells.
Different concentrations of the G glycoprotein peptides and/or 5 μg/ml heparin (Sigma) were diluted in Dulbecco's phosphate buffered saline (D-PBS; GIBCO) and added to Vero cell monolayers for 1 h at 37° C. Pre-treated Vero cells were infected with 10^6 PFU of RSV/A2 diluted in serum-free DMEM (GIBCO) for 2 h at 37° C., after which DMEM (GIBCO) containing 10% FBS (Hyclone, Logan, Utah) was added, and the infected cells incubated at 37° C. for 3-4 days. Plaques were enumerated by immunostaining with monoclonal antibodies against the G and F glycoproteins (130-2G and 131-2A, respectively), as described (54,55).

[5] = target: T2, Fkn binding to 293-CX3CR1 cells (Homo sapiens, UniProt P49238); conditions: heparin 5 μg/ml alone
T2 construct: host or cells: HEK 293 cells stably transfected with CX3CR1

[6] = 10 nM ligand, representative experiment, FIG. 1

| Molecule | binding to 293-CX3CR1 cells [1] | binding to 293 cells (293 cells) | Range of Inhibition (%) of G glycoprotein binding [2] | plaque inhibition (%) (RSV [3]) | inhibition of plaque formation (RSV [4]) [%] | Range of Inhibition (%) of Fkn binding [5] | percent positive staining of CX3CR1-293 cells [1, 6] [%] | percent positive staining of 293 cells (293 cells; [6]) [%] |
| --- | --- | --- | --- | --- | --- | --- | --- | --- |
| F glycoprotein: RSV F (fusion) glycoprotein in wheat germ lectin column fraction | 12% | 8% | – | – | – | – | – | – |
| Heparin [reference compound] | – | – | 78-84% | 66 | 80 | 57-65% | – | – |
| B1 | 68-88% | 7-12% | – | – | – | – | 68 | 12 |
